Test results as given in the supplement of paper PMC10567573.

B1: GOLPH3 (parent)
chain: FAPLLDEQYDLATKRVRQLLDLDP

Variants of: B1
Assay: protein stability index of a GFP-peptide fusion (GPS, HEK-293T) (PSI 1-6); higher = more stable
Settings: c terminus: a fixed tail appended
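Further: lentivirally expressed fusions sorted by FACS into six bins by GFP to DsRed ratio, PSI derived from sequencing read proportions per bin multiplied by bin number.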

Protein stability index of substitutions, site by site:
Y9: F 2.75; R 2.2; A 2.9; E 3.5; C 2.9; H 2.49; D 2.98; K 2.4; T 2.45; S 2.96; L 2.15; W 2.06; I 2.26; M 2.46; Q 2.64; N 2.57; V 1.24
L19: E 2.58; A 2.7; F 1.63; C 1.49; D 3.22
A2: M 2.03; D 3.71; K 3.14; E 3.13; S 3.46; W 1.92; T 2.71; F 2.03; V 2.11; L 2.2; P 3.45; C 1.85; H 2.48; N 3.01; I 1.75; Q 3.37; G 3.19; Y 2.43
D6: C 2.25; S 2.26; N 1.54; T 1.76; H 1.48; Y 2.03; P 2.81; I 1.46; W 1.88; F 1.49; L 1.83; E 2.22; M 2.25; Q 1.42; G 1.45; V 1.75; K 2.4; A 2.38
R15: L 2.24; E 2.43; D 2.73; G 1.74; H 2.04; M 1.99; Q 2.11; C 2.1; V 2.35; K 1.93; Y 1.51; T 1.76; W 1.61; N 2.3; F 2.06; P 2.48; I 2.01; S 1.8; A 2.56
L5: T 1.95; I 1.78; D 3.74; H 2.42; M 2.38; W 2.07; C 1.82; R 1.18; K 2.39; G 2.24; S 1.85; Y 2.45; A 2.34; E 3.7; P 2.21; V 2.21; Q 2.45; N 2.97; F 2.6
Q8: P 1.74; H 2.04; M 1.88; Y 2.33; E 2.64; R 1.39; F 1.5; D 2.96; T 2.64; N 1.84; C 2.1; S 2.24; W 1.32; L 1.95; G 2.08; A 2.29; K 1.75
R17: V 2.03; M 2.27; H 1.87; C 2.14; D 3.1; N 2.83; T 2.11; G 2.45; E 2.41; S 2.61; Y 1.74; L 2.13; Q 2.77; I 2.22; P 2.45; F 1.93; A 2.37; K 1.8
T13: L 2.28; M 1.89; S 2.24; K 2.32; R 1.57; G 3.19; F 1.96; N 1.9; P 2.22; A 2.41; Y 1.28; I 1.6; Q 1.84; V 2.28; E 2.56; C 1.54; H 2.18; D 2.92
D10: Q 1.46; G 2.15; Y 1.63; S 2.03; C 2.54; I 1.88; L 1.72; F 2.69; T 1.56; N 1.59; K 1.98; E 2.36; P 2.4; R 2.23; V 1.27; W 3.11; M 2.24; H 1.58
